US20140072613A1, “Compositions and Methods for Treating Cutaneous Scarring” (priority 2012, published 2014)

Experiments:
Assay in all cases: cell-based or functional assay
ARK5(h) (human) = biological target: T1, ARK5(h) (human) (UniProt O60285)
T1 sequence (looked up): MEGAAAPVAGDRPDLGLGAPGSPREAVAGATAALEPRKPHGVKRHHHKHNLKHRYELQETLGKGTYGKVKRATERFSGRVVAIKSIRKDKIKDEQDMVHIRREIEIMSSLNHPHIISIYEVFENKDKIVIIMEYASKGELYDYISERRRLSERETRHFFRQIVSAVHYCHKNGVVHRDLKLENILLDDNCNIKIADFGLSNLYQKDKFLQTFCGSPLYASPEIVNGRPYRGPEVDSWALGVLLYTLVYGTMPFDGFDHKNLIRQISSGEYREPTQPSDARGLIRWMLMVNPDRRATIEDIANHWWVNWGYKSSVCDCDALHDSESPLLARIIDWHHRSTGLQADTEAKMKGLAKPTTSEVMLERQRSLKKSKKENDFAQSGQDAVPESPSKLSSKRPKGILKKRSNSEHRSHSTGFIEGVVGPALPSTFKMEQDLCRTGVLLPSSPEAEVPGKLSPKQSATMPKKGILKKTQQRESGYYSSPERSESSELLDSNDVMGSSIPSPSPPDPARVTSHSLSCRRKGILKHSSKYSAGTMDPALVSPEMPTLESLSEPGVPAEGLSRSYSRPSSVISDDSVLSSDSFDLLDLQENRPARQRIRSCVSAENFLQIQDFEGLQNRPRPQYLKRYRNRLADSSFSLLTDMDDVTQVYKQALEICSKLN

BrSK1(h) (human) = biological target: T2, BrSK1(h) (human) (UniProt Q8TDC3)
T2 sequence (looked up): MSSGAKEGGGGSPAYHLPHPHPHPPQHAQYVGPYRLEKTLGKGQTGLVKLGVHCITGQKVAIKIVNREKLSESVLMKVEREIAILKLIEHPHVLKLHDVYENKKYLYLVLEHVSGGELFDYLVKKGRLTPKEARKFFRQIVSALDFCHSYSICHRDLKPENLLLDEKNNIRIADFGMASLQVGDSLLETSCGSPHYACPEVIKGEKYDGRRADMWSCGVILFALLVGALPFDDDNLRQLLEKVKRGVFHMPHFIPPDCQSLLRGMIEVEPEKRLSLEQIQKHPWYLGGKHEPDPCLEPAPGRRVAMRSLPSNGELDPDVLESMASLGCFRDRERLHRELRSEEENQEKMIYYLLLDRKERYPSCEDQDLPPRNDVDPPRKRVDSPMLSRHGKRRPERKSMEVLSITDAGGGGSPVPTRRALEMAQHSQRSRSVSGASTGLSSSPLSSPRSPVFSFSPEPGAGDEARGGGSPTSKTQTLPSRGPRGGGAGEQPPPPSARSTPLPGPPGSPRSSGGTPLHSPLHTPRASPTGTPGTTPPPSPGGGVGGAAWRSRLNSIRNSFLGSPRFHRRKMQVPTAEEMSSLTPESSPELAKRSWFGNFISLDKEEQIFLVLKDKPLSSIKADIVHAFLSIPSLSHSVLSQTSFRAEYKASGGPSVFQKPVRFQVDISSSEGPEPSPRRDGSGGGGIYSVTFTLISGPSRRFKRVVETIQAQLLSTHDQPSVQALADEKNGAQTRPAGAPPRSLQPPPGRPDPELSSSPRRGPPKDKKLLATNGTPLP

[1] = biological target: CDK9/cyclin T1(h) (human) (UniProt P50750)
CHK2(I157T)(h) (human) = CHK2(I157T)(h) (human) (UniProt O96017)
EGFR(h) (human) = EGFR(h) (human) (UniProt P00533)
FGFR3(h) (human) = FGFR3(h) (human) (UniProt P22607)
FGFR4(h) (human) = FGFR4(h) (human) (UniProt P22455)
PKCε(h) (human) = PKCε(h) (human) (UniProt Q02156)
PKG1β(h) (human) = biological target: T3, PKG1β(h) (human) (UniProt Q13976)
T3 sequence (looked up): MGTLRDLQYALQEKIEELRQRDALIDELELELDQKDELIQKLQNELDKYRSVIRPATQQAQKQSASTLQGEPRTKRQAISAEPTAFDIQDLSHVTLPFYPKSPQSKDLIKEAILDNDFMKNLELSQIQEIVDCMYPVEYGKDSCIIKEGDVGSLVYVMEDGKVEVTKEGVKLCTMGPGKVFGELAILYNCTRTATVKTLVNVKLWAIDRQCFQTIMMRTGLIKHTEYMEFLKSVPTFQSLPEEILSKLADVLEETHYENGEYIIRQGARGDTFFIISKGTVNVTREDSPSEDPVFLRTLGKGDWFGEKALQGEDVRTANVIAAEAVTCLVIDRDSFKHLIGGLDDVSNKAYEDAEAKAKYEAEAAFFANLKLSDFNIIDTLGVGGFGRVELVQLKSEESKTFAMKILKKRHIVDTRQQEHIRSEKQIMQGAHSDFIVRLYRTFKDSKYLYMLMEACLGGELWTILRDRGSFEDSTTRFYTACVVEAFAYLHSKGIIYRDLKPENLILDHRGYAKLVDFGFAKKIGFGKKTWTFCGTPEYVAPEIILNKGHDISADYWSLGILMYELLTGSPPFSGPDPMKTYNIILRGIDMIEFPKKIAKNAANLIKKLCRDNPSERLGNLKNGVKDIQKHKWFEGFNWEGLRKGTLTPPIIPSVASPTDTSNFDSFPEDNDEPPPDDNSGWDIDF

RIPK2(h) (human) = RIPK2(h) (human) (UniProt O43353)
Snk(h) (human) = Snk(h) (human) (UniProt Q9NYY3)
p70S6K(h) (human) = p70S6K(h) (human) (UniProt P23443)
p70S6K(h) (human), sequence (P23443 1-421): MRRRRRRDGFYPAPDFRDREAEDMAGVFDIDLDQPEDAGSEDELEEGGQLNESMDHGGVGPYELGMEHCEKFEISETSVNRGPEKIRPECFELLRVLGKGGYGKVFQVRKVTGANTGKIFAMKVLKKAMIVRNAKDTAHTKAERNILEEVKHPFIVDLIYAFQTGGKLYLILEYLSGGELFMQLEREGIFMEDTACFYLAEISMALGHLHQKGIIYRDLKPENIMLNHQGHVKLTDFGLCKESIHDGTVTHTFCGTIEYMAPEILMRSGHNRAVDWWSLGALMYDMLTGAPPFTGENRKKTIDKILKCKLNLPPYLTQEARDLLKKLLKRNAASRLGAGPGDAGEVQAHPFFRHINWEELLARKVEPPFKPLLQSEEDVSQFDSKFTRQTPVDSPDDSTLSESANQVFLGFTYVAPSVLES

FGFR3(h) (human), sequence (P22607 397-806 limits assumed): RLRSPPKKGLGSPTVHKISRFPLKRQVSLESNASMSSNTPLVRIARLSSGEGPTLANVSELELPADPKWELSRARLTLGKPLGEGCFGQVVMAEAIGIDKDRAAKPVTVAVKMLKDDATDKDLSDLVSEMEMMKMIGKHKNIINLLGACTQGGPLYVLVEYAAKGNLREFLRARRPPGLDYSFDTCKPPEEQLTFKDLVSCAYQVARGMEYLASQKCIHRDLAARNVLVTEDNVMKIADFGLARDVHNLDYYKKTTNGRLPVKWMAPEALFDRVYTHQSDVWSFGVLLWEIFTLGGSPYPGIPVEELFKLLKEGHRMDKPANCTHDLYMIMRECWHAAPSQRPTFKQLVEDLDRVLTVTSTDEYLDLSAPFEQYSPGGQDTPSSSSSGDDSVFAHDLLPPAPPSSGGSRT
PKCε(h) (human), sequence (Q02156 whole entry): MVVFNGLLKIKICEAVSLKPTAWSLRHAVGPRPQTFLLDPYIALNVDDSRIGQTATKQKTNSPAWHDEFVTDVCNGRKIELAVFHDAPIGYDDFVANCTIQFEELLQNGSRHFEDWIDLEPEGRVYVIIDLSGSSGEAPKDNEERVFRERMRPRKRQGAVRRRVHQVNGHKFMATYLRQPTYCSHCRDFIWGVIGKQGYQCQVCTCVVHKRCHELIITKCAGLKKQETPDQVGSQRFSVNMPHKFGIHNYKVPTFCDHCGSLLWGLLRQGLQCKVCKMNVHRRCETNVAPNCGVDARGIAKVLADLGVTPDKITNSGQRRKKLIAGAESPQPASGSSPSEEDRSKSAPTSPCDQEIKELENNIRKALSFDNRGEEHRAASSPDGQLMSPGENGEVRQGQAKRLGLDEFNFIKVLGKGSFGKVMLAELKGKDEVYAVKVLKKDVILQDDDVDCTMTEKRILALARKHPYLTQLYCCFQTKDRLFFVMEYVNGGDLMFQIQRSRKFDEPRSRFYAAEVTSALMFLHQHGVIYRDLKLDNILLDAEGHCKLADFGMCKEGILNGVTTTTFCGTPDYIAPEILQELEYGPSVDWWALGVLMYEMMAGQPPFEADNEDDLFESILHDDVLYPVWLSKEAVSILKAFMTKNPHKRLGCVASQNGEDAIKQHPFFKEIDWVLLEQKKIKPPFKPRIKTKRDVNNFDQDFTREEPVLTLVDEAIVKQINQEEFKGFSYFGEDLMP
Snk(h) (human), sequence (Q9NYY3 whole entry): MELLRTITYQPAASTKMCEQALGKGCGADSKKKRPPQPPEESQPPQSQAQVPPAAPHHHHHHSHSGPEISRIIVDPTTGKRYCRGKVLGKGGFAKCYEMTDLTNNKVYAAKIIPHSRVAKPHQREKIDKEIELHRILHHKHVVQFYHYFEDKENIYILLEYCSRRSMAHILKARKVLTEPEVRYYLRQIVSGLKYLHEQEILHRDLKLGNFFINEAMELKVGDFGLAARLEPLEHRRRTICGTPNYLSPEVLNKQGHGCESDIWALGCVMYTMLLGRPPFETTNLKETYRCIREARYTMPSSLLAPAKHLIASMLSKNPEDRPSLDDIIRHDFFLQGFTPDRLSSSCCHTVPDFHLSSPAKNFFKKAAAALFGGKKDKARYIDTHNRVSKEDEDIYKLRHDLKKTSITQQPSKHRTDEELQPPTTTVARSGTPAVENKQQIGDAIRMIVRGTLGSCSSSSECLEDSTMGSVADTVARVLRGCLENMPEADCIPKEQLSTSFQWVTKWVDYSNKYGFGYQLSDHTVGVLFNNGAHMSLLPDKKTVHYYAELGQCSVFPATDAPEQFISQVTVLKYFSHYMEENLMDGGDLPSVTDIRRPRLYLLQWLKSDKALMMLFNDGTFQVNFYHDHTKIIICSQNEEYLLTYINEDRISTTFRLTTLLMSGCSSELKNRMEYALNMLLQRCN
CHK2(I157T)(h) (human), sequence (O96017 5-543 I157T limits assumed): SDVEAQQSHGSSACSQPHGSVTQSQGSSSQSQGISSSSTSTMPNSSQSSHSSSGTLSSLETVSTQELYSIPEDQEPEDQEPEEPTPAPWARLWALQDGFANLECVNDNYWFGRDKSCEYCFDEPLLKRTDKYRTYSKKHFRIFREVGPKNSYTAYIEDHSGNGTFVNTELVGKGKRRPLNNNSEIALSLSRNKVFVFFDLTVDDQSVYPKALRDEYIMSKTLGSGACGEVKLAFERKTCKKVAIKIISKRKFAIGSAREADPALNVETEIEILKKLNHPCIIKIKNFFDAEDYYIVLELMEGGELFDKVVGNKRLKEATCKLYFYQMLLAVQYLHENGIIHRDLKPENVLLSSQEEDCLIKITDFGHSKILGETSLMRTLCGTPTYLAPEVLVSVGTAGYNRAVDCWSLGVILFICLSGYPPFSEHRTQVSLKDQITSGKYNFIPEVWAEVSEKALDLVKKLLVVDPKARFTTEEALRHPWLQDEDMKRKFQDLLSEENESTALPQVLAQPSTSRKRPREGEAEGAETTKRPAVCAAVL
RIPK2(h) (human), sequence (O43353 1-299 limits assumed): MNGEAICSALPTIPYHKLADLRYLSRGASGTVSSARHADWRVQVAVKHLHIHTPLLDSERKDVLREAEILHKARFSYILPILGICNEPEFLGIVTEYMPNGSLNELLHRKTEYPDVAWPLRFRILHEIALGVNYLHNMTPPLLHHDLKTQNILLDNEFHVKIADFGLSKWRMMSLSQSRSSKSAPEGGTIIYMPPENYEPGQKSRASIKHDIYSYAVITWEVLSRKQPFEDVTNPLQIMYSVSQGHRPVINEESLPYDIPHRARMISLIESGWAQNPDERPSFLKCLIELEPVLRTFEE
FGFR4(h) (human), sequence (P22455 460-802 limits assumed): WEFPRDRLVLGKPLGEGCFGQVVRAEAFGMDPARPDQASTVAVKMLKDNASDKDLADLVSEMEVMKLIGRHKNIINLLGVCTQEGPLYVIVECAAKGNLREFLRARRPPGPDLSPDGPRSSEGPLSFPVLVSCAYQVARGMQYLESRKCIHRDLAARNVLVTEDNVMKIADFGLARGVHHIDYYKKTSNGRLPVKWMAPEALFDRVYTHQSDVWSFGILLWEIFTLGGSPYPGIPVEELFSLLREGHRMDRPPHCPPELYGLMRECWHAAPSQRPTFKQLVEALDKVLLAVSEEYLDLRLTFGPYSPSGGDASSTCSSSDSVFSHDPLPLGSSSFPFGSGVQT
CDK9/cyclin T1(h) (human), sequence (P50750 whole entry, chain 1 of 2): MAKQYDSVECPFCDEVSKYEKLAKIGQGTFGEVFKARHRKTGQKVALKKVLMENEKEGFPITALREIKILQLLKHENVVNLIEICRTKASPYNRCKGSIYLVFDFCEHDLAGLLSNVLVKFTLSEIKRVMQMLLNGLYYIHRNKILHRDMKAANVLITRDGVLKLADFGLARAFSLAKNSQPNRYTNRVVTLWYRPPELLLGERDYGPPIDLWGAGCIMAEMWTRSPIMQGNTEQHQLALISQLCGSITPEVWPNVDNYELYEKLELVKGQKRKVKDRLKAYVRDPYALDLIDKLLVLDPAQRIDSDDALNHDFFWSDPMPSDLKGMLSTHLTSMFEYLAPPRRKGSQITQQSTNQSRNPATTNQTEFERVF
CDK9/cyclin T1(h) (human), sequence (O60563 whole entry, chain 2 of 2, further chain): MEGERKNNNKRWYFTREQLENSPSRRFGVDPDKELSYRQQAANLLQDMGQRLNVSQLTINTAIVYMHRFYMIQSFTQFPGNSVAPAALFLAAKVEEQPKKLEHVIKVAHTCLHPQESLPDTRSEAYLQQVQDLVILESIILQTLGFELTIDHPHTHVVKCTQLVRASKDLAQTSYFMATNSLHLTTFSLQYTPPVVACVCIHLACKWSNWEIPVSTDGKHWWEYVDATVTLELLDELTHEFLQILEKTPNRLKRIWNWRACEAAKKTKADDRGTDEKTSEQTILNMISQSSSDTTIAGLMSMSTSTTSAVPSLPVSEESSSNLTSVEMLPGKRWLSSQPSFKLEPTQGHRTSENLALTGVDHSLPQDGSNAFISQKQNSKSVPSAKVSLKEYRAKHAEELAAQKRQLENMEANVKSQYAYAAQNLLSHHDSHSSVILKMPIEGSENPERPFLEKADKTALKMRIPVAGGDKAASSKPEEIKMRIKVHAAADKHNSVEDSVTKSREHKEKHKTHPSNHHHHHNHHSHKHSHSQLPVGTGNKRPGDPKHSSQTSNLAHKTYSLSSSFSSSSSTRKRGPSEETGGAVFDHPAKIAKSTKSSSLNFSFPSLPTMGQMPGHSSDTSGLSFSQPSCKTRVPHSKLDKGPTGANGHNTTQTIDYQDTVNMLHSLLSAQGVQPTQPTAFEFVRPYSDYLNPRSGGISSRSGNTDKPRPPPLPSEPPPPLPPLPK

- % activity, 100 µM (ARK5(h) (human)): 20%
- % activity, 100 µM (BrSK1(h) (human)): 72%
- % activity, 100 µM [1]: 6%
- % activity, 100 µM (CHK2(I157T)(h) (human)): 3%
- % activity, 100 µM (EGFR(h) (human)): -1%
- % activity, 100 µM (FGFR3(h) (human)): 10%
- % activity, 100 µM (FGFR4(h) (human)): 3%
- % activity, 100 µM (PKCε(h) (human)): 23%
- % activity, 100 µM (PKG1β(h) (human)): 24%
- % activity, 100 µM (RIPK2(h) (human)): 30%
- % activity, 100 µM (Snk(h) (human)): 122%
- % activity, 100 µM (p70S6K(h) (human)): 3%
Substance: MMI-0500 (peptide)
